Results as given in patent US20140302028A1.

Assays:
[1] = biological target: recombinant human FcRn (Sino Biological Inc.) (human) (UniProt P55899); assay: SPR (Biacore T100), human FcRn immobilised, pH 6, two-state model
[2] = biological target: recombinant mouse FcRn (R&D Systems) (mouse) (UniProt Q61559); assay: SPR (Biacore T100), mouse FcRn immobilised, pH 6, two-state model
[3] = biological target: recombinant human FcRn (Sino Biological Inc.) (human) (UniProt P55899); assay: SPR (Biacore T100), human FcRn immobilised, pH 6, two-state model, complex formation
[4] = biological target: recombinant mouse FcRn (R&D Systems) (mouse) (UniProt Q61559); assay: SPR (Biacore T100), mouse FcRn immobilised, pH 6, two-state model, complex formation
[5] = biological target: recombinant human FcRn (Sino Biological Inc.) (human) (UniProt P55899); assay: SPR (Biacore T100), human FcRn immobilised, pH 6, two-state model, complex stabilization
[6] = biological target: recombinant mouse FcRn (R&D Systems) (mouse) (UniProt Q61559); assay: SPR (Biacore T100), mouse FcRn immobilised, pH 6, two-state model, complex stabilization

Chain of UniProt P55899 (P55899 24-297 limits assumed, chain 1 of 2): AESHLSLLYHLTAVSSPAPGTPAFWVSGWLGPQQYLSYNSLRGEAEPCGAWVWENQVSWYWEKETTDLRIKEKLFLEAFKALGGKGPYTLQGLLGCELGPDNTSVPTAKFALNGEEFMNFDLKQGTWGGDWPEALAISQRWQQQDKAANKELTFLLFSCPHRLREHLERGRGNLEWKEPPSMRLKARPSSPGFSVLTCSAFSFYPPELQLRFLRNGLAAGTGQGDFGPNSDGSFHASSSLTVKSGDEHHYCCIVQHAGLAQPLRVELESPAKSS
Chain of UniProt P55899 (chain, as listed by the source limits assumed, chain 2 of 2): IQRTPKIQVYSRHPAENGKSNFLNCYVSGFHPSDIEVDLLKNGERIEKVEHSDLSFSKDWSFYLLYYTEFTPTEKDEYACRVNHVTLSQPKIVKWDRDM
Chain of UniProt Q61559 (Q61559 22-297 limits assumed, chain 1 of 2): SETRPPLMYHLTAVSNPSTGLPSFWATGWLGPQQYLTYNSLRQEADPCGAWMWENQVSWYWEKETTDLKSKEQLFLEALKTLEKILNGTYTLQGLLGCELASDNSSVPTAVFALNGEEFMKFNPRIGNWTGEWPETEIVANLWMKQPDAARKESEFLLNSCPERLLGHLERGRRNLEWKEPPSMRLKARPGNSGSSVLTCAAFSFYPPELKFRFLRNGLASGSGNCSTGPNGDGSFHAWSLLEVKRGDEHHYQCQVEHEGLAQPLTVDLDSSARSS
Chain of UniProt Q61559 (chain, as listed by the source limits assumed, chain 2 of 2): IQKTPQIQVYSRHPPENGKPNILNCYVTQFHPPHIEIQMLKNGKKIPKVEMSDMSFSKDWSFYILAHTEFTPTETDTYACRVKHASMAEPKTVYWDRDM

## HUMIRA ® (antibody)
[1]
  Kd: 34 nM
[2]
  Kd: 6.66 nM
[3]
  koff: 0.313 s⁻¹
  kon: 5.99e+06 M⁻¹ s⁻¹
[4]
  koff: 0.0153 s⁻¹
  kon: 159000 M⁻¹ s⁻¹
[5]
  kd (Complex Stabilization): 0.00155 s⁻¹
[6]
  kd (Complex Stabilization): 0.000107 s⁻¹
